Drawing on a protein production outcome set (Wang et al. 2014), this text covers protein production for 15 sequences.
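Also: failed if final PepcDB status was selected cloned or expressed and not failed if soluble or beyond.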

This data set is described as follows: label from the status in PepcDB records.
Regarding “MTQPNIIMTRVDERLIHGQGQLWVKFLNCNTVIVANDAVSEDKIQQSLMKTVIPSSIAIRFFSIQKVIDIIHKASPAQSIFIVVKDLQDAKLLVEGGVPITEINIGNIHKTDDKVAITQFISLGETDKSAIRCLAHDHHVVFNTKTTPAGNSASDVDILDYI”, the protein production entry is given as “not failed”. Next, “MTQPVPVHYTLRPVSPEAHLFEATVTISHPAKDGQVFFLPAWIPGSYMIREFSKHIVGMAASAGGKPVALRQLEKNRWQAAPAKGALTLRYQVYAFDLSVRGAYLDGERGFFNGTSVFLAAEGYEGEACTVDIHAPEGKAYAEWKVATSLPAEDVKKKTGFGRYRAADYDELIDHPVEMGDFKKVSFKACGVPHEFVVSGRFQGELKRLAEDTRKICECQIKLFGEPAPFDRYVFMLFVGKDIYGGLEHRASTALVANRDDLPAPGAAEIGDGYLKLLGLISHEYFHSWNVKRMKPAAFTPYDLNREGMTRLLWAFEGITSYYDDLTLVRCGLIDEKRYLGLLAETITGVQRGAGRLKQTLEQSSFEAWTKYYRQDENSPNSIVSYYTKGSLAALALDLLIRRDSKGKQSLDDVMRALWAKWLADGKGLEEGEWEKIAIETTGLKLKPFFDLALRSTGELPLAELLKSQGVELKFEAAQGASDRGGVVDAFAGKPAPLTLGVKTAADAAGVKLLQVLDGGAAQAAGLSGGDVVVAVDKLRAYDLDKQIARFAAGDKIKLHAFRRDELMTFEVAPQAAPEDTCRLKLDAGGGKWIAGRLEHHHHHH”: “failed”; “MTQQHLFPSTKAKSYKLFCFYLLILTSLLHPATAGAADITQQLHRPVNSSMGRQSRDEADSLLRVAEQQYAAGCADKAIDSGLQALDIYHLIGDLRAKGLTYNLLAKAYIELGRFKEGEDALRRRLAIARDTKDFQSQIFALNNLGTLLLQAGEPKAAGETIQEAYTIADNVKNIDGEGLSLSNLGLVSSRLGDYNKAIKLYETALIFRRRTGDAPGEMNTLNNLGDAYLAAGNYPDTIGTYGAAMRIAKTLGDRSNQLRAIDGLVTAHSAVGRYERAFDLLQQRLTIAQELQNLREELKSFESYAKLYEQLGNYPTARNFYERAIIISQTLEDNKQEVFLRDRLTQMLRSQKSILK”: “failed”; “MTQTTVPVIFDLDGTLVDPAGGITGGISAALREMDLPVPEQAVLNSMVGPKLSDSLLHLADVPGELVDETIERYRRHYKETGIGQSKLYPGVFDLLEYFAETGRPVAVATQKPQSIARLVLEHHKIADFFVSIRGAADDESLKANTASGKVEIVGAALKDLHSQPAVMVGDRHQDVAGALANGLDCIGVSWGFAPDGELEEAGAVAVVSTALELRSKIEELDAVRAAALSEVQNDGSL”: “failed”. Next, “MTRACNLYVFKNKYVSFNLLDSPNSNPKLLKISLPFNFMDEFEGLLKAVGSAPWYKLIGMVPKLQGDRVVVEMEIDRSKHLQALGTTHGGAIASVLDSAIGLNVNREVVKMGKTAVTAQLNIHYIRPVTEGKIVGVGMPMHIGSKVTVGYGEVRNEEGELVAAGTATFYIIDRRFRDLEHHHHHH”: “failed”; “MTRAQPEPVQVVKQRRDAALRALVSGVPYITYLGIQFDRRGDELTAVLPFDEKLIGNPMLPAIHGGVTAAFLEVASIIELSWSVLWHEMEQGRLDPDQIEARLPRLPKTIDFTVDYLRSGLPRDAYARARVNRSGRRYASVHVEAWQDNRLRPFAQATGHFLMPARNDLEHHHHHH”: “not failed”. As for “MTRHNEIIKCAEKYQLHIQPQTISLNESGLDFQVAFGKDKHGVEWVLRLPRRPDVYKRTKPEKQTVDFLQKNVSFEIPKWKVHAKDLIAYPKLTGKPAATIDPEIQNYVWEIEHKPLPENFINTLAETLVDLHNIPEENINVQHINIKTIQEIKNDFQRRMNKVKETYGVSDELWNRWKQWLENDELWPRHATMIHGDLHPGHIMVDNQANVTGLIDWTEATHSDPSMDFIGHHRVFDDEGLEQLITAYGKAGGEIWPRMKEHIIELNAVFPMFIAEFAMESGESAYETMALKELGMKE”, the entry is “failed”. Take “MTRLTRFAVAPLHSMTRRLADVASARVAPDLVVTGARVLSTYSERIHANREVWITGGRVAAVKPAGTARKAWSGVALYDAAGAIIAPGLVDPHIHIESSMVTACAYAEAALLNGTTTIFCDSHEIGNVMDVAGVEAMLEDARQAPLSIFLTVPSTVPATSAELETAGGDLTPDKIAGLFDRWPEAVALGEKMDFVPVTMGDERSHAILAAALKRGRPVSGHVYGREFVAAYAASGVTDTHEAIDRDIADDLLDAGVWVFLRGGPPTTPWHSLPQAIRTITELGASHKRTAVCTDDRDADDLLLFGLDWVVREAVKAGMSPEQAWSMGSLHGATRFGMEGDIGGLGGGRRADLVLMDDQLKPQCTWYGGELVVEHGKITPRLDQALSQRYQYPKAAYATVKLPEKVKLTPELPAKACTVNAIKTALPGITLIHEKVAIEPAKDWPTLFARYGLCFVTVVERHGKSAGNVAYGLLKDFGLKRGAVASSVGHDSHNIIVAGTNEPDMQVAIAAIKEHQGAVCVVADGKVRALVPLPIAGLLSDKRVTEVAEEVKVLKKEWAEAGCTIPYMGFNLIPLSVIPEIRITDKGLVLVPQMELAPLFE”: the protein production entry is “failed”. As for “MTRPIFYDPTGRRSLLAKRSLAVVFLAVILAALAFATTLVAVPRQRALSLPQPHFEAASLHRGHGLSRLRSWLPRLHLQRSQEALAIGFYQPRSDASFQSLSRHGNQLDWVVPALLNVAGPEHRLAVSNDPRFDSFVAAGHHHYKVLPMVQNVGGDGWDGANVARILENATERHALERQLADYVARRGDAGLVLDFEDLPATAMRPYVAFLRETNALLPAGAQLAVTAPAGEDDWPIAALGRAADKVILMAYDEHWQNGAAGPIASQTWFTNEVEKSARALPADRLVIALGSYGYDWHQGGTDALSLSDAWLAAHDSHAPIIFDKASGNAGFAYEQDGVSHTVWMLDAATDWNEMLAVQRLGIGNLALWRLGTEDPGFWNDLAALRSGKAPDLSRLVSEGGNDVEGTGEILRITATPVAGSRTVAFGDQHLIRDERYGDLPTPFVVRRTGAANPKLLALTFDDGPDPKWTPKVLSTLEAAHVPATFFVIGENALVRPDLLRRMVADGDEIGNHTYTHPNLAGSSEAETRLEINATQRLVQAYTGRSMTLFRAPYFGDAEPTTADELQPALRAQQAGYTIVGLHVDPNDWQNPGTDEIVRQVVNQIHNATEQSSSNVILLHDGGGDRSQTVAALPRIVAVLRAEGYSFVTASQLVGIPPQAAMPRLSSSDLAAVRVDVAAFLALDGLVTLFSWLFFVAIALGIARAVIMAGLAWWQSRSPRAEPPAFEPTVSVIIPAWNEERVIAASVERVLASDYPALQVIVADDGSKDATSAVVARHFGHDPRVTLLTLANGGKAAALNRALRHATGEVVIALDADTQFEPLTIRRLARWFADPRIGAVAGDARVGNRVNLVTRWQAVEYITAQNLERRALAGFDAMTVVPGAVGAWRRAALDSVGGYPENTLAEDQDLTIAIQRKGWRVTYDPRAVAWTEAPQTFRALARQRYRWAFGTLQCLWKHRKVITSRKPAGLGLVGLPQAWLFQIAFAAISPLIDGALIASIISTVVRVVQHGWAQTQGDLGRMAIYWSLFTAIDVICGWIAYRLDDKRPPYPAHLLVAQRIVYRQIMYWVVLRALASAIGGWIVGWGKLERTGTVSPAPERA”, the entry is “failed”.

For the sequence “MTRPMRLAAVAAACLTMALAGCQTNGAGSTDGVVRTNEPSKGDVTSFGDAFDGLKTVSDVEYYASDQAVAEATNQFRAENYGNAGALFFKATQLAPNDGGAWMGLAASCDRIRRFDLADRAYGKAFKLVGASAEYYNNVGYSYLLRGKLQDARTSFLKAYELAPNDPTVANNLKLLSSSVQNIER”, the protein production entry is given as “failed”. As for “MTRRGWILFVALCVLWGIPYLLIKVAVRDLTPASLVFLRTATGAVLLLPFVLVRGNLRPVLARWRPIALFTFGEMAVPWLLLADAERHVTSSLAGLVIAATPLVGALASRLSAGHEPLGARRMSGLAVGLAGVVALLGLDLGRGDARAVAELAVVVIGYALAPRIVARRLSDLPALDVVAVSLAMCALAYAPFGIAQLPAALPPAEALGAVAGLGVLCTALAFTLFFQLIAEVGPVRATVVAYVNPAVAVAAGVTLLGEPFTVGTAVGFALILGGSWLATSGAAGRARTPAPASAPAAPGAVAPAAAERAG”, the entry is “failed”; as for “MTRRVKTGIPGVDEILHGGIPERNVVLLSGGPGTGKTIFSQQFLWNGLKMGEPGIYVALEEHPVQVRQNMAQFGWDVKPYEEKGMFAMVDAFTAGIGKSKEYEKYIVHDLTDIREFIEVLRQAIRDINAKRVVVDSVTTLYINKPAMARSIILQLKRVLAGTGCTSIFVSQVSVGERGFGGPGVEHGVDGIIRLDLDEIDGELKRSLIVWKMRGTSHSMRRHPFDITDKGIIVYPDKVLKRGKVLEL”, “not failed”. Next, “MTRSQNVLAGLLLAGLLAPHAVSAEGYQTPPPELAALVDAPRTPLQSLNPQGDAVLQTHRPGLPAIADVAQPELKLAGLRLNPRMRAASRFDFGSALTLLDVKSGKSRPVTGLPARPRIADNAWSPDGKQVALSLWGDRGVELWLLDAASARVRRLGDFHLNASSGRGFAWMGAQLLVKLLPAGQGPAPEKPSTPTGPNIQQSAGGALSQTRTYPDLLKTPYDADLLDYELNSQLALVDLSGRTKLIGKPDRYLSVQASPDRRYLLATKLQRPYSTLVPLNRFPRRIEVLNLQGDSVHLVAQRPLLERMPSGNDAVETGPREVQWRTDAPATLFWAEAQDGGDPSTPAKARDALYLLPAPFQQPPLKLQELASRFAGIQWGRGDLALVSEYWWKTRDLKVWRVRPAEPDHAPTLLNRRSSEDRYADPGSPAMVSNADGLPVLQTSPDGGSLYLLGEGASPEGDRPFIDQLNLADNKATRLWRSQAPWYEAPMAVLDGGKTALLSREQADAPPNLYLKTLGQGGGLKQLTFFPHPTPQLKNVQKRQLRYKRADGIDLTATLYLPPGYDAKRDGPLPMLMWAYPAEFKSADAASQVTDSPYRFNRVGYWGPEALLARGYVVLDDPSMPIVGAGKQEPNDTYLPQLKMDAQAAVDEVVRLGVADRDRIAIGGHSYGAFMTANLLAHTRLFRAGIARSGAYNRTLTPFGFQSEERDFWQAKDVYQAMSPFNYAEQIKDALLLIHGEADNNPGTFPIQSERMYQALQGLGGTVRLAMLPAESHGYRARESILHMLWEEDRWLDQFVKRAKPRAQGTAAR”: “failed”. For the sequence “MTRTFDTPLPIDDALDELTAALEASNTAVLVAPPGAGKTTRVPLALLDAPWLRNQKIIVLEPRRIAARASAERMAKTLSEKAGERIGYRVRFGSKVSRATRIEVVTEGIFTRQILDDPELNGVAAVLFDEFHERSLDADLGLALARDAQQGLREDLRILVMSATIDGARVARLLGDAPVVESLGRAFPVETRYLGRRSDAPLERQMAEAIAQALRAETGSVLAFLPGAAEIRRTETMLRERVQDPAVEIVPLFGALDAAVQDRAIQPAPKGQRKVVLATSIAETSLTIEGVRIVVDCGLSRVPRYEPDLGLTRLETVRASRAAVDQRRGRAGRIEPGVCYRLWDEPQTASLPAYTQPEILSADLSSLLLDLAQWGVADPSSLAFLDPPPQPALKEARELLGELGALDPDGRITDEGRSLRAMALPPRLARMIVDAARHDCAKDAAEVAAILTERGLGGDSADLDNRRDQFRRDRSQRASSARQMAQRWATQAASSSPSPQDAGELSSGVLLAFAFPDRVAKNRGNGSFTLANGRGAAVEQTSALARAPYLAVGELTGSAAQGRILLAAPIALSEIELHFGDQITDADEVSFDRSAMALRARRRRALHAITLSEAPLALTPSEQTARVLAEGLVVAGLDRLPWSKQLQQWRGRVMFLRKAEGDPWPDLSDAALAETRENWLVPALFDKTGLKDFSASDLSDALMNLLPWELRARLDREAPTHFEAPTGSKLPIDYEAEQGPTIAVRLQELFGLTTHPSVAGGAVPLVLELLSPAHRPVQVTRDLPGFWRGSYAGVRADLRGRYPRHPWPEDPASAPPTRRAKPKGT”, the protein production result is “failed”. Regarding “MTRYALLVRGINVGGKNKVVMAELRQELTNLGLEKVESYINSGNIFFTSIDSKAQLVEKLETFFAVHYPFIQSFSLLSLEDFEAELENLPAWWSRDLARKDFLFYTEGLDVDQVIATVESLELKDEVLYFGKLGIFWGKFSEESYSKTAYHKYLLKVPFYRHITIRNAKTFDKIGQMLKK”, the protein production result was “not failed”.
